Numbering of substitutions follows the chain as printed.
T1: cynomolgus CD47-ECD-Avi-His (cynomolgus monkey)
T1 construct: also called recombinant cynomolgus monkey CD47-avi-his protein
T1 chain: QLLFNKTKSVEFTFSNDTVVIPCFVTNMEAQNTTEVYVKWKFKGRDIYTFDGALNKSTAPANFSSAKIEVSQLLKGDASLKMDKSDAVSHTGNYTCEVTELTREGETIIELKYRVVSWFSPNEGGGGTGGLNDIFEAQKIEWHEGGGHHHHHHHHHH

B1: anti-CD47-UCP01-G1 FAB (Fab, V domains shown)
VH: EVQLLESGGGLVQPGGSLRLSCAASGFTFSNYAMAWVRQAPGKGLEWVSVISVEGGLTVYADSVKGRFTISRDNSKNTLYLQMNSLRAEDTAVYYCARGSRDSRGKYGAFDVWGQGTLVTVSS
VL: not shown
notes: human IgG1 Fab
B2: anti-CD47-UCP01-A3 FAB (Fab, V domains shown)
VH: EVQLVESGGGLIQPGGSLRLSCAASGFTFTNSWMSWVRQAPGKGLEWVSVIYKYGFTEYADSVKGRFTISRDNSKNTLYLQMNSLRAEDTAVYYCARGSSIAAYAYAAPYRGGWMDVWGQGTLVTVSS
VL: not shown
notes: human IgG1 Fab
B3: anti-CD38-B6-MP01-D9 FAB (Fab, V domains shown)
VH: QVQLVQSGAEVKKPGSSVKVSCKASGGFFSHYIINWVRQAPGQGLEWMGRVIPVIDDAYYAQKFQGRVTITADESTSTAYMELSSLRSEDTAVYYCARSRGYYGSFYFDIWGQGTLVTVSS
VL: not shown
notes: human IgG1 Fab; also called anti-CD38-B6-D9
B4: anti-CD38-B6-MP02-G11 FAB (Fab, V domains shown)
VH: B3 VH with F28H, F29T, S30L, H31P, Y32P
VL: not shown
notes: human IgG1 Fab
B5: anti-CD38-B6-MP02-C2 FAB (Fab, V domains shown)
VH: B3 VH with F28H, F29G, S30Q, H31Q, Y32R
VL: not shown
notes: human IgG1 Fab
B6: anti-CD38-B6-MP01-B4 FAB (Fab, V domains shown)
VH: B3 VH with G27Y, F28E, S30N, H31T
VL: not shown
notes: human IgG1 Fab
B7: anti-CD38-B6-MP02-B10 FAB (Fab, V domains shown)
VH: B3 VH with F28H, F29N, S30L, H31G, Y32K, A40P
VL: not shown
notes: human IgG1 Fab
B8: anti-CD38-B6-MP01-H3b FAB (Fab, V domains shown)
VH: B3 VH with F28P, S30Q, H31S, Y32N, I34V, V37I
VL: not shown
notes: human IgG1 Fab
B9: anti-CD38-B6-MP01-H3a FAB (Fab, V domains shown)
VH: B3 VH with F28P, S30N, H31A, Y32N, I34V, V37I
VL: not shown
notes: human IgG1 Fab
B10: anti-CD38-B6-MP02-C1 FAB (Fab, V domains shown)
VH: B3 VH with F28H, F29Q, S30L, H31G, Y32K
VL: not shown
notes: human IgG1 Fab
B11: anti-CD38-B6-MP01-A4 FAB (Fab, V domains shown)
VH: B3 VH with F28P, H31D, I33V
VL: not shown
notes: human IgG1 Fab
B12: anti-CD47-UCP01-A2 FAB (Fab, V domains shown)
VH: EVQLLESGGGLVQPGGSLRLSCAASGFTFSRFAMGWVRQAPGKGLEWVSIISPNGHVTAYADSVKGRFTISRDNSKNTLYLQMNSLRAEDTAVYYCARDGLSVSSQGVAFDYWGQGTLVTVSS
VL: not shown
notes: human IgG1 Fab
B13: anti-CD47-UCP02-C1 FAB (Fab, V domains shown)
VH: QVQLVQSGAEVKKPGSSVKVSCKASGGFFSAHTISWVRQAPGQGLEWMGRITAVRGVPTYAQKFQGRVTITADESTSTAYMELSSLRSEDTAVYYCARASYGGPRYYWDGLDIWGQGTLVTVSS
VL: not shown
notes: human IgG1 Fab
B14: anti-CD47-UCP01-G2 FAB (Fab, V domains shown)
VH: EVQLVESGGGLIQPGGSLRLSCAASGFTVSNSYMTWVRQAPGKGLEWVSVIYKYGKTSYADSVKGRFTISRDNSKNTLYLQMNSLRAEDTAVYYCARGLTVSPYWGGAFDYWGQGTLVTVSS
VL: not shown
notes: human IgG1 Fab
B15: anti-CD47-UCP01-B3 FAB (Fab, V domains shown)
VH: EVQLVESGGGLIQPGGSLRLSCAASGFTFSNNYMSWVRQAPGKGLEWVSVIYKKGFTNYADSVKGRFTISRDNSKNTLYLQMNSLRAEDTAVYYCARGLSVDKYDGGPFDYWGQGTLVTVSS
VL: not shown
notes: human IgG1 Fab
B16: anti-CD38-420-E2-RecB FAB (Fab, V domains shown)
VH: QVQLVQSGAEVKKPGSSVKVSCKASGLPDATYAIGWVRQAPGQGLEWMGRIIPALAATHYAQKFQGRVTITADESTSTAYMELSSLRSEDTAVYYCARGLGYYLYSSYYFDIWGQGTLVTVSS
VL: not shown
notes: human IgG1 Fab
B17: anti-CD38-E2-UCP02-F3 FAB (Fab, V domains shown)
VH: B16 VH with L27G, P28S, D29F, A30S, T31N, A54V, A56D, T58A
VL: not shown
notes: human IgG1 Fab; also called anti-CD38-E2-F3
B18: anti-CD38-E2-UCP02-E7 FAB (Fab, V domains shown)
VH: B16 VH with L27G, P28S, D29F, A30S, T31N
VL: not shown
notes: human IgG1 Fab
B19: anti-CD38-420-E2-RecA FAB (Fab, V domains shown)
VH: B16 VH with A54R, A56D, T58E
VL: not shown
notes: human IgG1 Fab; also called anti-CD38-E2-RecA
B20: anti-CD38-E2-UCP02-D6 FAB (Fab, V domains shown)
VH: B16 VH with L27G, P28S, D29F, A30S, T31N, A54R, A56D, T58E
VL: not shown
notes: human IgG1 Fab
B21: anti-CD38-420-E2-RecD FAB (Fab, V domains shown)
VH: B16 VH with A56G, A57G, T58V
VL: not shown
notes: human IgG1 Fab
B22: anti-CD38-420-E2-RecC FAB (Fab, V domains shown)
VH: B16 VH with A54V, A56D, T58A
VL: not shown
notes: human IgG1 Fab
B23: anti-CD38-E2-UCP02-G8 FAB (Fab, V domains shown)
VH: B16 VH with L27G, P28S, D29F, A30S, T31N, A56G, A57G, T58V
VL: not shown
notes: human IgG1 Fab
B24: anti-CD38-E2-UCP02-F8 FAB (Fab, V domains shown)
VH: B16 VH with L27G, P28S, D29F, A30S, T31N, A54S, A56D, T58G
VL: not shown
notes: human IgG1 Fab; also called anti-CD38-E2-F8
B25: anti-CD47-UCP02-B3 FAB (Fab, V domains shown)
VH: QVQLVQSGAEVKKPGSSVKVSCKASGGRFRLYGINWVRQAPGQGLEWMGGISPIDGYAAYAQKFQGRVTITADESTSTAYMELSSLRSEDTAVYYCARSRRPYSASASYPGYGMDVWGQGTLVTVSS
VL: not shown
notes: human IgG1 Fab
B26: anti-CD47-UCP01-A1 FAB (Fab, V domains shown)
VH: QVQLVQSGAEVKKPGSSVKVSCKASGGFFRLYAFSWVRQAPGQGLEWMGGIIPTDGFVGYAQKFQGRVTITADESTSTAYMELSSLRSEDTAVYYCARSRYYRPYGEYYVVGYGFAYWGQGTLVTVSS
VL: not shown
notes: human IgG1 Fab
B27: anti-CD47-UCP02-H3 FAB (Fab, V domains shown)
VH: B26 VH
VL: not shown
notes: human IgG1 Fab

Columns and labels:
human CD47-ECD-Avi-His = target: T2, human CD47-ECD-Avi-His (human); test: SPR, CD47 amine-coupled, Fab analyte, 1:1 fit
T2 construct: also called recombinant human CD47-avi-his protein; recombinant human CD47 protein
Experimental: (§1) Surface plasmon resonance (SPR) was used to measure the binding affinities of the Fab fragments for human and cynomolgus monkey CD47. Affinities were measured on a Biacore T200 instrument (Biacore, GE Healthcare) at 25° C. and analyzed with the Biacore T200 Evaluation Software (v3.1). […] Recombinant human CD47 protein and recombinant cynomolgus monkey CD47 protein were covalently immobilized to around 50 RU on flow-path 2 and flow-path 4 respectively of the Sensor Chip surface using a commercially available amine coupling kit (Biacore, GE Healthcare, catalog NO: BR100050). […] Dissociation was monitored for 5 min. After each cycle, the Series S CM5 Sensor Chip surface coated with recombinant CD47 proteins was regenerated with 30 μl of 10 mM Glycine pH 1.5 (Biacore, GE Healthcare, catalog NO: BR100354). Experimental data were processed using the 1:1 Langmuir kinetic fitting model. Measurements included zero-concentration samples for referencing. Chi², U- and residual values were used to evaluate the quality of a fit between the experimental data and individual binding models.

[1] = target: T1, cynomolgus CD47-ECD-Avi-His; test: SPR, CD47 amine-coupled, Fab analyte, 1:1 fit
Experimental: as §1

[2] = target: T3, recombinant human CD38-ECD-C-his (human, UniProt P28907 43-300); test: SPR, Fab captured as ligand, CD38 analyte
T3 construct: Extracellular region fused to 6-His, made in house; also called human CD38-C-His; recombinant human CD38 protein
Experimental: (§2) Affinities of the Fab to human and cynomolgus CD38 using the Fab as ligand were measured on a Biacore T200 instrument (Biacore, GE Healthcare) at 25° C. and analyzed with the BiacoreT200 Evaluation Software (v3.1). […] The affinities to human and cynomolgus monkey CD38 were assessed by immobilizing Fab fragments and using human or cynomolgus monkey CD38 protein as analyte. Around 50-200 RU of Fab was captured on flow-path 2 of a Series S CM5 Sensor Chip coupled with anti-human Fab antibodies. Human or cynomolgus monkey CD38 was injected in multi cycle kinetic at different concentrations ranging from 0.2 to 100 nM, in HBS-EP+ buffer (Biacore, GE Healthcare, catalog NO: BR100669) at a flow rate of 30 μl/min for 5 min on flow-path 1 and 2 (flow-path 1 being used as reference). Dissociation was monitored for 10 min. […] Experimental data were processed using the 1:1 Langmuir kinetic fitting model. Measurements included zero-concentration samples for referencing. Chi², U- and residual values were used to evaluate the quality of a fit between the experimental data and individual binding models.

[3] = target: T4, recombinant biotinylated human CD38 Avitag, His Tag (Acrobiosystems, CD8-H82E7) (human, UniProt P28907 43-300, biotinylated (Avitag)); test: SPR, biotinylated CD38 captured, Fab as analyte
T4 construct: Bought protein; also called biotinylated human CD38-avi-his protein; biotinylated recombinant human CD38 protein

[4] = target: T5, recombinant cynomolgus monkey CD38-ECD-C-his (cynomolgus monkey, UniProt Q5VAN0 45-301); test: SPR, His-captured cyno CD38, Fab as analyte
T5 construct: Extracellular region fused to 6-His; also called cyno CD38-C-His; recombinant cynomolgus monkey CD38 protein

[5] = target: T5, recombinant cynomolgus monkey …; test: SPR, Fab captured as ligand, cyno CD38 analyte
Experimental: as §2

Binder	Kd (human CD47-ECD-Avi-His) [nM]	Kd [1] [nM]	Kd [2] [nM]	Kd [3] [nM]	Kd [4] [nM]	Kd [5] [nM]
B1	136	214				
B2	1170	1260				
B3			2.3	0.55	3.33	5.2
B4			128	425	262	534
B5			404	101		342
B6			51.6	11.9	45.4	167
B7			108	20.1	81.2	528
B8			171	28.9	130	330
B9			89.4	28.3	120	389
B10			97.7	12	67.2	333
B11			227	84.9	229	828
B12	822	1070				
B13	193	113				
B14	183	190				
B15	316	340				
B16			1.6			4.4
B17			6.13	3.5	2.4	
B18			4.66	2.2	1.8	
B19			0.9			3.7
B20			5.35	4.9	1.1	
B21			6.7			22.1
B22			1.3			3.9
B23			7.7	5.2	4.2	
B24			16.2	17.6	24.5	
B25	1010	1120				
B26	292	15.9				
B27	455	17.8				

Reference: US20240150489A1 (ICHNOS SCIENCES, published 2024)
